According to paper PMC4640858:

Target: QsdR (Quorum sensing degradation Regulation) wild type, transcriptional regulator of the TetR/FabR family (Rhodococcus erythropolis R138)
Experiment: SEC; gel filtration Superdex 200 26/60, buffer A (50 mM Tris-HCl pH 8, 150 mM NaCl); molecular mass estimate 44 kDa

**Q.** “QsdR (Quorum sensing degradation Regulation) wild type, transcriptional regulator of the TetR/FabR family (natural protein)” was tested. Which stoichiometry N did it give?
**A.** 2
